Measured values reported in the Human Domainome abundance scans (Beltran et al. 2025).

B1: Transcription elongation factor A N-terminal and central domain-containing protein, residues 30 to 77; numbered along this chain, Q8N8B7 (parent)
chain: LTELETIYVTKEHLQETDVVRAVYRVLKNCPSVALKKKAKCLLSKWKA

Variants of: B1
Test: abundance fitness (aPCA) (normalised: wild type 0, dead -1); higher = more abundant; growth selection in yeast, the domain comes from the species named
Details: Homo sapiens

Abundance fitness: each site, then its substitutions
W46: L 0.022; R -0.758; N -0.823; A 0.105; V -0.035; G -1.07; Q -0.792
Y8: S -0.388; C -0.489; V -0.008; A 0.274
E12: Q -0.278; D -0.184; W -0.71; S -0.168; C -0.79; K 0.138; I -0.707; L -0.792; T -0.068
E5: C -0.897; N -0.587; I -0.48; L -0.28; A -0.235; P -0.663; G -0.775; T -1.17
P31: G 0.298; A 0.119; H -0.349; R 0.188; M 0.457; W 0.382
V26: I -0.105; T 0.279; P -0.131; K -0.149; Q -0.183
Y24: C -0.003; N -0.362; G -0.345; I 0.105; Q -0.223; L 0.205; D -0.217; W 0.406; K 0.219
L4: Y -0.325; Q 0.142; F -0.044; V -0.23; D 0.257; N 0.469; E 0.173
H13: Y -0.479; I -0.668; K 0.106; S 0.02; V -0.698
E16: T -0.116; D 0.043; V -0.279; M 0.041; Y -0.004; H -0.153; C -0.03
V19: Y -0.595; E -0.618; R 0.037; L -0.121; N -0.695; Q -0.464; W -0.01; H -0.454
L14: M 0.16; E 0.336; H 0.294; V 0.172; N 0.235; Y -0.124; K 0.23; G 0.252; W 0.094; Q 0.247
L1: M 0.235; W -0.554; F -0.001; S -0.501; V -0.379; Y -0.521
T2: F -0.483; S 0.198; P -0.629; W -0.711
A34: H -0.057; M -0.163; T -0.161; W -0.176; G -0.028; I -0.826; N 0.266; P -0.378
K28: F -0.247; H -0.435; T -0.169; I -0.149; N -0.445; M -0.749; V -0.142; P -0.379
T10: K -0.198; G -0.164; A -0.017; M -0.143; E -0.139; C -0.566; F -0.547; W -0.315; D -0.31; H -0.23; Q 0.117; Y -0.771; I -0.657; R -0.041
D18: K -0.136; Y 0.057; R 0.24; P -0.154; G 0.354; M 0.384; F 0.169; L -0.077
A22: K 0.082; I -0.419; C -0.206; Q -0.082; R 0.277; W 0.256; N -0.099; D -0.209
E3: M -0.045; G -0.416; K -0.195; Y -0.207; R -0.24; C 0.159; S -0.149
S32: L 0.355; N -0.017; I 0.27; T -0.022; R 0.022; K -0.155; V 0.289; A 0.103
C30: H -0.743; Q -0.189; F 0.121; D -0.442; S -0.514; I 0.204
I7: N 0.081; Q 0.015; F -0.323; P 0.091; Y -0.422; M 0.244; E 0.3; H -0.212; C -0.541
A48: V -0.62
L27: P -0.444; F -0.754; W -0.031; N -0.846; Q -0.648; E -0.932; T -0.883; I -0.053
K45: T -0.656; D -0.443; G -0.894; Q -0.782; Y -0.1; A -0.57; R -0.123; P -0.667; M -0.63
V20: G -0.109; W 0.07; D -0.215; F 0.071; E -0.561; T -0.414; P -0.19; S -0.594; L 0.113; N -0.741; Q -0.633
V9: E 0.318; K 0.251; R 0.155; Y -0.147; L -0.229; F 0.045
L42: S -0.77; D -0.894; P -1.01; M -0.203; T -0.703; E -0.993; V -0.354; G -1.05; H -1.02; Q -0.791; N -0.871; A -0.689; K -1.13
K36: M 0.085; L -0.137; H -0.633; A -0.063; Q -0.063
L43: Y -0.256; W 0.127; S -1.04; R -0.889
S44: V -0.48; K -0.312; N -0.351
V33: S 0.089; Q 0.007; M -0.027; E -0.208; A -0.016; P 0.129; L 0.174; N -0.279; H -0.527
R21: N -0.113; P -0.514; M -0.333; H -0.067; E -0.647; Y -0.601; L -0.88
K47: A -0.739; E -1.08; D -0.762; G -0.605; S -0.967; T -0.351; I -0.47
C41: F 0.005; K 0.171; N 0.268; P -1.22; E 0.019
Q15: W 0.069; M -0.452; L -0.352; E -0.016; R 0.093; N -0.388; T -0.213; I -0.46; A -0.088
K38: R -0.061; D -0.885; T -0.11; E -0.933; I -0.266; H -0.529; A 0.023; F -0.193; L -0.024; C 0.099
N29: S -0.144; R 0.144; F -0.09; G -0.282; P -0.904; V -0.186
V23: D -0.578; N -1.04; S -0.54; M -0.087; T -0.122; A -0.453; K -0.573; I 0.189; G -0.72; R -0.426
R25: Y -0.805; G -0.136; Q -0.038; F -0.811; L -0.71; D -0.443; K -0.364
K11: S -0.016; L -0.014; I -0.08; Q -0.184
A39: C 0.072; M -0.016; E -0.972; R -0.968; I 0.2; T -0.512
T17: Q -0.649; V -0.526; A -0.43; I -0.654; F -0.852; P 0.057; M 0.192; Y -0.784; K -0.14; D -0.368; L -0.892; N 0.149
T6: E 0.126; F -0.23; R -0.074; M -0.107; Y -0.513
K37: T -0.574; H -0.609; I -0.337; R 0.023; E -0.248; Q -0.553
